T1: Cyno CD117, soluble (cynoCD117 1-520) (cynomolgus monkey, UniProt P10721 26-520 (human entry))
T1 construct: Residues as printed
T1 chain: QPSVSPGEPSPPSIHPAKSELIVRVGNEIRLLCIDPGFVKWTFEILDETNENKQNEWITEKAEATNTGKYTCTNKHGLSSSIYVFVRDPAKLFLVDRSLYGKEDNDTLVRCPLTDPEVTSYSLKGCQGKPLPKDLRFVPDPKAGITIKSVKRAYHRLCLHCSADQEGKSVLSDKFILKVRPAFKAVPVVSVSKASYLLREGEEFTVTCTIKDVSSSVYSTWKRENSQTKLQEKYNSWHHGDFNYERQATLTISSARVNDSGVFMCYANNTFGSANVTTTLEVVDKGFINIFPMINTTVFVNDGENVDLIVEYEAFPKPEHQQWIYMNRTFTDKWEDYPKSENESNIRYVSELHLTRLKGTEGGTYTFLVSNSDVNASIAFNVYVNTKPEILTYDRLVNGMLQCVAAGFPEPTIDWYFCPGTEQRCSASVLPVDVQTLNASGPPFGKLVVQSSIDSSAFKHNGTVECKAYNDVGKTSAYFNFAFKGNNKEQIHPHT

T2: Murine CD117, soluble (MuCD117 1-527) (mouse, UniProt P05532 25-527)
T2 construct: Residues as printed
T2 sequence: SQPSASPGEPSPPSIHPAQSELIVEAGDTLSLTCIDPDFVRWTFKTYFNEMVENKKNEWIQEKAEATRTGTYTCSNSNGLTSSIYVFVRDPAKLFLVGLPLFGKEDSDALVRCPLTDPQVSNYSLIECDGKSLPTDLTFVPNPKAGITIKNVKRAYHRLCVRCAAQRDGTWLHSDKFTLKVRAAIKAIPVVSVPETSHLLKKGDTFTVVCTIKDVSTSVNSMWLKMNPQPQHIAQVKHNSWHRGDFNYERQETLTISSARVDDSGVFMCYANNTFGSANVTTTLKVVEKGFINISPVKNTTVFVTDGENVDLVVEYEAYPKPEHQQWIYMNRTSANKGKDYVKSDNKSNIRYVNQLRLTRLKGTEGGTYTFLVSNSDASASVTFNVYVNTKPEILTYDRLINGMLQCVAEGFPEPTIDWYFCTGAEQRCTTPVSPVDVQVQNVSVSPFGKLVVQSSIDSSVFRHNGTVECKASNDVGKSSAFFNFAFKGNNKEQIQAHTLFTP

B1: 4A2 IgA2 anti-CD117 antibody (Example 8) (antibody, V domains shown)
VH: EVQLLESGGGLVQPGGSLRLSCAASGFTFSDYGMSWVRQAPGKGLEWVSAIGYGGGGKYYADSVKGRFTISRDNSKNTLYLQMNSLRAEDTAVYYCAKDTWWLAGLFDYWGQGTLVTVSS
VL: EIVLTQSPGTLSLSPGKRATLSCRASQSVSNSYLAWYQQKPGQPPKLLIYWASTRESGVPDRFSGSGSGTDFTLTISSLQAEDVAVYYCQQYYSTPLTFGGGTKVEIKR
B2: 3B2 IgA2 anti-CD117 antibody (Example 8) (antibody, V domains shown)
VH: QVQLQESGPGLVKPSETLSLTCTVSGYSISSGYYWGWIRQPPGKGLEWIGSIYHSGSTYYNPSLKSRVTISVDTSKNQFSLKLSSVTAADTAVYYCARVGVRYFDWLLYGAFDIWGQGTMVTVSS
VL: SYELTQPPSVSVSPGQTATITCSGDKLGETYVHWYQHQSGQSPILVVYQDFKRPSGIPERFSGSNSGNTATLTISGTQAMDEADYYCQAWDSSTAVFGGGTKL
B3: 3B3 IgA2 anti-CD117 antibody (Example 8) (antibody, V domains shown)
VH: EVQLVESGGGVVQPGRSLRLSCAASGFTFSSYAMHWVRQAPGKGLEWVSVIYSGGSTYYADSVKGRFTISRDNSKNTLYLQMNSLRAEDTAVYYCARDSSGYRGDFDYWGQGTLVTVSS
VL: SYELTQPPSVSVSPGQTASITCSGDKVGAKYVFWYQQKPGQSPVLVVYQDNKRPSGIPERFSGSNSGNTATLTISGTQAMDEADYYCQAWDSSTALYVFGTGTKV
B4: 3C2 IgA2 anti-CD117 antibody (Example 8) (antibody, V domains shown)
VH: EVQLAESGGDLVQPGGSLRLSCAASGFTFSSYAMSWVRQAPGKGLEWVSAISGSGGSTYYADSVKGRFTISRDNSKNTLYLQMNSLRAEDTAIYYCARDLRVYAMEAFDIWGQGTMVTVSS
VL: SYELTQDPAVSVALGQTVRITCQGDSLRDYYANWFQQKPGQAPLLVIFYDSDRPSGIPERFSGSNSGNTATLTISRVEAGDEADYYCQAWDSSSDHWVFGGGTKL
B5: hu4A2 IgG4 (hu4A2-hKG4p) (antibody)
heavy: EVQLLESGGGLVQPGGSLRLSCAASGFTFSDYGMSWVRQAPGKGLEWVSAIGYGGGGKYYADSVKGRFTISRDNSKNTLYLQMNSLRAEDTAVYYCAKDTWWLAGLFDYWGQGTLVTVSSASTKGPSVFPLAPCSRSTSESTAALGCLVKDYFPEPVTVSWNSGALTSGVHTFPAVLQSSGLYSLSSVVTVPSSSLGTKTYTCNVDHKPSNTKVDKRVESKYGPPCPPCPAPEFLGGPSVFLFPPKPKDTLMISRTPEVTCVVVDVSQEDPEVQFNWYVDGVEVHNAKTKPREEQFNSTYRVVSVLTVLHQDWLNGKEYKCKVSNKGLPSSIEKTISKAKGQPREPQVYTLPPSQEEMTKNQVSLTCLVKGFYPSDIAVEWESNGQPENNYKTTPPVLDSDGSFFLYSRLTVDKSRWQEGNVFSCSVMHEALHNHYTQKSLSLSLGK
light: IVLTQSPGTLSLSPGKRATLSCRASQSVSNSYLAWYQQKPGQPPKLLIYWASTRESGVPDRFSGSGSGTDFTLTISSLQAEDVAVYYCQQYYSTPLTFGGGTKVEIKRTVAAPSVFIFPPSDEQLKSGTASVVCLLNNFYPREAKVQWKVDNALQSGNSQESVTEQDSKDSTYSLSSTLTLSKADYEKHKVYACEVTHQGLSSPVTKSFNRGEC
notes: Human IgG4, kappa
B6: hu3B3 IgA2 (hu3B3-hLhA2 (P221R)) (antibody)
heavy: EVQLVESGGGVVQPGRSLRLSCAASGFTFSSYAMHWVRQAPGKGLEWVSVIYSGGSTYYADSVKGRFTISRDNSKNTLYLQMNSLRAEDTAVYYCARDSSGYRGDFDYWGQGTLVTVSSASPTSPKVFPLSLDSTPQDGNVVVACLVQGFFPQEPLSVTWSESGQNVTARNFPPSQDASGDLYTTSSQLTLPATQCPDGKSVTCHVKHYTNSSQDVTVPCRVPPPPPCCHPRLSLHRPALEDLLLGSEANLTCTLTGLRDASGATFTWTPSSGKSAVQGPPERDLCGCYSVSSVLPGCAQPWNHGETFTCTAAHPELKTPLTANITKSGNTFRPEVHLLPPPSEELALNELVTLTCLARGFSPKDVLVRWLQGSQELPREKYLTWASRQEPSQGTTTFAVTSILRVAAEDWKKGDTFSCMVGHEALPLAFTQKTIDRLAGKPTHVNVSVVMAEVDGTCY
light: SYELTQPPSVSVSPGQTASITCSGDKVGAKYVFWYQQKPGQSPVLVVYQDNKRPSGIPERFSGSNSGNTATLTISGTQAMDEADYYCQAWDSSTALYVFGTGTKVTVLGQPKANPTVTLFPPSSEELQANKATLVCLISDFYPGAVTVAWKADGSPVKAGVETTKPSKQSNNKYAASSYLSLTPEQWKSHRSYSCQVTHEGSTVEKTVAPTECS
B7: hu3C2 IgA2 (hu3C2-hLhA2 (P221R)) (antibody)
heavy: EVQLAESGGDLVQPGGSLRLSCAASGFTFSSYAMSWVRQAPGKGLEWVSAISGSGGSTYYADSVKGRFTISRDNSKNTLYLQMNSLRAEDTAIYYCARDLRVYAMEAFDIWGQGTMVTVSSASPTSPKVFPLSLDSTPQDGNVVVACLVQGFFPQEPLSVTWSESGQNVTARNFPPSQDASGDLYTTSSQLTLPATQCPDGKSVTCHVKHYTNSSQDVTVPCRVPPPPPCCHPRLSLHRPALEDLLLGSEANLTCTLTGLRDASGATFTWTPSSGKSAVQGPPERDLCGCYSVSSVLPGCAQPWNHGETFTCTAAHPELKTPLTANITKSGNTFRPEVHLLPPPSEELALNELVTLTCLARGFSPKDVLVRWLQGSQELPREKYLTWASRQEPSQGTTTFAVTSILRVAAEDWKKGDTFSCMVGHEALPLAFTQKTIDRLAGKPTHVNVSVVMAEVDGTCY
light: SYELTQDPAVSVALGQTVRITCQGDSLRDYYANWFQQKPGQAPLLVIFYDSDRPSGIPERFSGSNSGNTATLTISRVEAGDEADYYCQAWDSSSDHWVFGGGTKLTVLGQPKAAPSVTLFPPSSEELQANKATLVCLISDFYPGAVTVAWKADGSPVKAGVETTKPSKQSNNKYAASSYLSLTPEQWKSHRSYSCQVTHEGSTVEKTVAPTECS
B8: hu3B3 IgG4 (hu3B3-hLG4) (antibody)
heavy: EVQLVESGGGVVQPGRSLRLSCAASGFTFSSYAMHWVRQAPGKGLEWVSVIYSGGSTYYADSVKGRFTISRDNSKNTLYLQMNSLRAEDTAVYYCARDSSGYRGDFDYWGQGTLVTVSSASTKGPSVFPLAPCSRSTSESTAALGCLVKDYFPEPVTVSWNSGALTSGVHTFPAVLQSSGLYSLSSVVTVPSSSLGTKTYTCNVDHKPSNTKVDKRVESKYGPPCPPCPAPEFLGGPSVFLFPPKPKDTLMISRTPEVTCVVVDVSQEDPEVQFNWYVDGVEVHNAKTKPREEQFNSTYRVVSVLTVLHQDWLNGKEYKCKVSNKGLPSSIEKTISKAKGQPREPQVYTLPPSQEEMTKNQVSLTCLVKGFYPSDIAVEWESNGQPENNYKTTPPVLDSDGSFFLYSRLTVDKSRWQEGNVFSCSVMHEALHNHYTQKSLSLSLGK
light: B6 light
B9: hu3C2 IgG4 (hu3C2-hLG4p) (antibody)
heavy: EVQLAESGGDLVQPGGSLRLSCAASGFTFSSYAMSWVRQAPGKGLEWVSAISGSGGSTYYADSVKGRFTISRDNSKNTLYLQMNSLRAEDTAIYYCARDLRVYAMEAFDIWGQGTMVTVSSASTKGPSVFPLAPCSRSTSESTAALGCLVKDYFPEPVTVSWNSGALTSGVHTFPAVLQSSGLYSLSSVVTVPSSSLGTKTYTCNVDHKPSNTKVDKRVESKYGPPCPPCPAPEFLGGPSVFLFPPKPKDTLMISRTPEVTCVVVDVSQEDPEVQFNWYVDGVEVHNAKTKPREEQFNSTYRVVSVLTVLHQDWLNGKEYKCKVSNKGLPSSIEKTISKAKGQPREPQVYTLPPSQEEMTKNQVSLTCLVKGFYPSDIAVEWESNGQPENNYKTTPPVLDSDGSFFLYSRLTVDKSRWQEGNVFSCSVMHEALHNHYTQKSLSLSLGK
light: B7 light

What follows are binders tested against Human CD117 (c-kit), cell-surface expressed (human, UniProt P10721 26-976) (assay: cell-based or functional assay).
Chain of Human CD117 (c-kit), cell-surface expressed (P10721 26-976 limits assumed): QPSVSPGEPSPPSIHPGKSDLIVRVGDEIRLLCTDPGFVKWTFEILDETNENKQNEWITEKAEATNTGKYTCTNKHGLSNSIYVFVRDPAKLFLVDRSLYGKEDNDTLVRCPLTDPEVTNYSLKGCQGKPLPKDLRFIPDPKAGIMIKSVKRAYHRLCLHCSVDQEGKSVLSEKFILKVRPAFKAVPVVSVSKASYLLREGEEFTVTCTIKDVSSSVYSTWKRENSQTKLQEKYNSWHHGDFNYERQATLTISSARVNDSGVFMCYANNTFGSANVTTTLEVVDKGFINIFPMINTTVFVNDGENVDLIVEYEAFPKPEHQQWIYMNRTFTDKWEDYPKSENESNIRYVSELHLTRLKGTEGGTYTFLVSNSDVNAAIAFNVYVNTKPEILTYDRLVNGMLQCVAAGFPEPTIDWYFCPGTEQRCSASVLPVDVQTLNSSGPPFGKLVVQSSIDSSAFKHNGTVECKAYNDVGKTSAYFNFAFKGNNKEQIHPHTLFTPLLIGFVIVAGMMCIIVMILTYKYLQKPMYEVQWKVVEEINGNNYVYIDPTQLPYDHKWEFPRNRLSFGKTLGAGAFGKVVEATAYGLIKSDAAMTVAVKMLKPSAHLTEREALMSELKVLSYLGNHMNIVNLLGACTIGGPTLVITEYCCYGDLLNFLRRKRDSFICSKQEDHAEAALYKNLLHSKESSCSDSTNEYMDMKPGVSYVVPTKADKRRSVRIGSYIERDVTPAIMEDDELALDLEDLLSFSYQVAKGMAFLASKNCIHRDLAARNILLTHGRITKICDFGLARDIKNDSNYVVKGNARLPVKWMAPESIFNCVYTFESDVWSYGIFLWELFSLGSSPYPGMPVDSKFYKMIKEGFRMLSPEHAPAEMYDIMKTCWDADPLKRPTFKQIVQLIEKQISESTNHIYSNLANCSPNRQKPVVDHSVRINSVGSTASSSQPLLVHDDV
For B1, the “EC50 of trogocytosis (ADCT; DILC18 membrane uptake by neutrophils from CD117-transfected 293 cells)” value (shortened to “EC50 of trogocytosis”) was 0.64 nM and the “Normalised uptake (B max) in %, ADCT” value was 95.3%. For B2, the “EC50 of trogocytosis” value was 4.51 nM and the “Normalised uptake (B max) in %, ADCT” value was 42.7%. For B3, the “EC50 of trogocytosis” value was 0.44 nM and the “Normalised uptake (B max) in %, ADCT” value was 51.1%. For B4, the “Normalised uptake (B max) in %, ADCT” value was 3.38%.

What follows are binders tested against N-terminal domain of human CD117, soluble (HuCD117 1-308) (human, UniProt P10721 26-308) (assay: SPR Biacore 4000, captured antibody, soluble CD117 analyte, 1:1 fit;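 also: antibodies captured on CM5 chips via goat anti-human IgG or IgA, CD117 analyte in two-fold series 0.8–200 nM, run at pH 7.3 and 37 °C, double-referenced sensorgrams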).
Chain of N-terminal domain of human CD117, soluble (HuCD117 1-308) (P10721 26-308): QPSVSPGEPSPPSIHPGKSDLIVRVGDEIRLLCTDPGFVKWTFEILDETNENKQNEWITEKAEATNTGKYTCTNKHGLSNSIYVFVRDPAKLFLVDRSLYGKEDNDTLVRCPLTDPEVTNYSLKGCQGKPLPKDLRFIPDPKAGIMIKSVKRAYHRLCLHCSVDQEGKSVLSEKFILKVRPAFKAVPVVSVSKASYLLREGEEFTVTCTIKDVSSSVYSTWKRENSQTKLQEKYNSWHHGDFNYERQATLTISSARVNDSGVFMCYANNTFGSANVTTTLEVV
Experimental: (§1) Biacore 4000 was used for all binding analyses. Experiments were performed at pH 7.3, 37° C. and under flow rate of 30 μL/min. Human anti-CD117 antibodies were surface captured using either polyclonal goat anti-human IgG or IgA antibodies directly immobilised onto the carboxymethyl dextran surface of CM5 sensorchips to approximately 13,000 RU using standard NHS/EDC chemistry at pH 5. The immobilised antibody surface was pre-conditioned with ten injections of human polyclonal IgG (Privigen 60s, 10 μg/mL) each followed by a regeneration cycle with 100 mM H3PO4.
(§2) A total of 18 anti-CD117 antibodies (2 μg/mL) were tested as captured ligands against four soluble mammalian CD117 receptor variants: the N-terminal domain of human CD117 (HuCD1₁₇₁₋₃₀₈), full length human CD117 (HuCD1₁₇₁₋₅₂₄), cyno CD117 (cynoCD117₁₋₅₂₀), and murine CD117 (MuCD117₁₋₅₂₇).
(§3) CD117 proteins were prepared in two-fold dilutions ranging from 0.8 to 200 nM. Anti-CD117 antibodies huAb249, huAb85, huCK6 and huhzSR1 were used as positive controls. BM4 was prepared in an IgG and IgA2 format and used as negative control. Binding affinities were calculated from sensorgrams double-referenced using reference surface and blank buffer injection data gathered within each experiment.
B5 was tested, and the Kd was 19.9 nM. With B6 the Kd was 0.49 nM. In the case of B7, the Kd is reported as 2.44 nM.

Molecular target: T1, Cyno CD117, soluble (cynoCD117 1-520)
Experiment: as above
Experimental: as §1, §2, §3
Binder B5 has a Kd of 43.4 nM. In the case of B6, the Kd is reported as 4.4 nM. With B7 the Kd was 20.9 nM.

The binders below were run against T3, Full length human CD117, soluble (HuCD117 1-524) (human, UniProt P10721 26-524) in the same assay as above.
T3 construct: also called full-length protein
T3 sequence (P10721 26-524): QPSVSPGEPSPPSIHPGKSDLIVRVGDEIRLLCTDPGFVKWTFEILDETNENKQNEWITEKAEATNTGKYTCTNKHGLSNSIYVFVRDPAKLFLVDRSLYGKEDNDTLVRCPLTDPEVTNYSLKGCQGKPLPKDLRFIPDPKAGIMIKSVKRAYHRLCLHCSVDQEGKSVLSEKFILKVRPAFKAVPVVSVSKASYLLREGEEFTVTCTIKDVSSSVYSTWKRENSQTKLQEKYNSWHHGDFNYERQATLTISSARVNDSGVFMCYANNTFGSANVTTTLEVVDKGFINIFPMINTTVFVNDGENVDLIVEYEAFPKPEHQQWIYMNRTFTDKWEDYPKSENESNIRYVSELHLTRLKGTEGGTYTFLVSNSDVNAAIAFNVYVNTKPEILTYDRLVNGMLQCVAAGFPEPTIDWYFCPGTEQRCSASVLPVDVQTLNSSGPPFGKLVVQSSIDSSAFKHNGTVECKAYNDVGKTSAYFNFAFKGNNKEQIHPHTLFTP
Experimental: as §1, §2, §3
Binder B5 has a Kd of 38.3 nM. B6 showed a Kd of 2.5 nM. B7 was tested, and the Kd was 9.3 nM.

The binders below were run against T2, Murine CD117, soluble (MuCD117 1-527) (assay: SPR, captured antibody, soluble CD117 analyte).
Experimental: as §1, §2, §3
B6: no binding (tested: 200 nM (highest CD117 concentration)). B7: no binding (tested: 200 nM (highest CD117 concentration)).

What follows are binders tested against T4, Soluble 8xHis-tagged C-terminal fragment of human CD117 (HuCD117 308-524) (human, UniProt P10721 308-524) (assay: SPR (Biacore 4000), IgG4 antibody captured on protein G, soluble His-tagged fragment injected at 25, 75, 225 nM).
T4 construct: C-terminal part of the extracellular region; also called C-terminal domain; not shown: 8xHis tag
T4 sequence (P10721 308-524): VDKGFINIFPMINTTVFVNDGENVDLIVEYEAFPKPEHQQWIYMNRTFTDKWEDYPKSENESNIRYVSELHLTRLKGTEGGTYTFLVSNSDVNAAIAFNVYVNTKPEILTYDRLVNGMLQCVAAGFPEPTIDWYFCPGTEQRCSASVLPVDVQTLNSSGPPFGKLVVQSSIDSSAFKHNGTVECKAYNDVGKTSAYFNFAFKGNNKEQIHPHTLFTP
B8: no binding (tested: 225 nM). B9: no binding (tested: 225 nM). B5: no binding (tested: 225 nM).

What follows are binders tested against T5, Soluble 8xHis-tagged N-terminal fragment of human CD117 (HuCD117 1-307) (human, UniProt P10721 26-307) (assay: SPR Biacore 4000, antibody captured on protein G, His-tagged fragment analyte, 1:1 fit, N=1).
T5 construct: This range counts from the precursor start, so a signal peptide is probably cleaved in the secreted protein; also called N-terminal domain; soluble N-terminal; not shown: 8xHis tag
T5 sequence (P10721 26-307): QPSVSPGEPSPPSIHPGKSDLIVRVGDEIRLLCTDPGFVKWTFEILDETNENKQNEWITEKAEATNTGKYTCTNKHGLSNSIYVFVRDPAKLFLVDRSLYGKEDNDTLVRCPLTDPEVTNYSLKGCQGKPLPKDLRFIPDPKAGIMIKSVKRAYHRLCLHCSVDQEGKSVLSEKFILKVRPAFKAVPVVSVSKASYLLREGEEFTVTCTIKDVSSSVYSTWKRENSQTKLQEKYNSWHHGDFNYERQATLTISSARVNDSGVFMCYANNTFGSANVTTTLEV
Work on B8 yielded a Kd of 9 nM. Binder B9 has a Kd of 14 nM. B5 gave a Kd of 49 nM.

Source: patent publication US20250171536A1 (CSL INNOVATION, published 2025)
